# Assay results: patent US20230250557A1 (published 2023)
# Target: T1, Biotinylated human PD-L1 antigen comprising a human IgG1 Fc domain (Acro Biosystems) (human, UniProt Q9NZQ7 19-238, biotinylated (site not stated))
# T1 construct: The ELISA text says only 'antigens' were coated at 1 ug/mL; also called PD-L1 target; not shown: human IgG1 Fc domain
# Test: ELISA, antigen coated at 1 ug/mL, purified scaffold titrated, anti-FLAG-HRP detection
# Procedure: (§1) Affinity of binding of individual scaffolds of the invention was estimated by ELISA. Antigens were dissolved in PBS to 1 μg/mL and 100 μl coated onto the surface of each well of a 96 well MaxiSorp Plate (Nunc) at 4° C. overnight. The next day, the wells of the MaxiSorp plate were washed with PBST buffer (PBS containing 0.05% Tween-20) and the wells blocked with 400 μl per well of 5% (w/v) skim milk powder in PBST for 2 hours. This blocking buffer was then discarded and the wells of the plate washed with PBST. […] The diluted target binding scaffold proteins were then transferred to the antigen coated MaxiSorp plate and allowed to bind to the immobilized blocked antigens for 2 hours at room temperature with gentle shaking. Following this, the diluted target binding scaffold protein solution was discarded and the wells of the MaxiSorp plate were washed 4 times with PBST. Then, 100 μl of a 1/4000 diluted solution of anti-FLAG M2 HRP conjugated antibody (Sigma) in PBST containing 2.5% (w/v) skim milk was added to each well and allowed to bind for 1 hour. This was then discarded and the plate washed 4 times with PBST. Then 100 μl of ELISA POD Substrate TMB Kit (HYPER) detection reagent (Nacalai Tesque, Japan) was added per well and the color development reaction stopped by addition of 100 μl of 1M phosphoric acid. Absorbance of each well was read at 450 nm wavelength. The EC₅₀ of binding was calculated from four parameter logistic plots of the measured absorbance values (FIGS. 17A-17B).
# T1 sequence (Q9NZQ7 19-238 limits assumed): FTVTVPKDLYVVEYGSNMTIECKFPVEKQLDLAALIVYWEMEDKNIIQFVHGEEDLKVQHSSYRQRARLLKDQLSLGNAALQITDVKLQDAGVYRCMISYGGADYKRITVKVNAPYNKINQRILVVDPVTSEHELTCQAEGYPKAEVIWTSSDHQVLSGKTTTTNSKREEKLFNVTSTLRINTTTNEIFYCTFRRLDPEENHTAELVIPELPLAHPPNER
row,EC50,Binder
1,91 nM,"1-12C (designed binder, CheBc scaffold clone from modified pQE-80L in E. coli, purified on cobalt resin, detected with anti-FLAG) GSHMVSGKIVVIGSSTGGPRSLDMIIPNLPKNFPAPIVVVQHGWALNGRYTLGTKSLAQRLDSTSELTVKEAEDGEEVKPGFVYIAPGDFHLGLKAQNGKVFFFLDKSGARDRGREWYGVRPAVDFTLDKAAEIYKEKTIAVILTGGYWEGDYAGGDGTKGAFKVKFYGGTVIAEDKETSVVFGMPKSVIEEGYADYVLPAYKIPEKLIELV"
2,165 nM,"1-12E (designed binder, CheBc scaffold clone from modified pQE-80L in E. coli, purified on cobalt resin, detected with anti-FLAG) GSHMVSGKIVVIGSSTGGPRSLDMIIPNLPKNFPAPIVVVQHGDGWYGGGAVGTKSLAQRLDSTSELTVKEAEDGEEVKPGFVYIAPGDFHLGLKAQNGKVFFFLDKSGGSYTGEWTWGVRPAVDFTLDKAAEIYKEKTIAVILTGGARYGDLRGGDGTKGAFKVKFYGGTVIAEDKETSVVFGMPKSVIEEGYADYVLPAYKIPEKLIELV"
3,108 nM,"1-1B (designed binder, CheBc scaffold clone from modified pQE-80L in E. coli, purified on cobalt resin, detected with anti-FLAG) GSHMVSGKIVVIGSSTGGPRSLDMIIPNLPKNFPAPIVVVQHGEGWYGGGAVGTKSLAQRLDSTSELTVKEAEDGEEVKPGFVYIAPGDFHLGLKAQNGKVFFFLDKSGRGLRGGWSWGVRPAVDFTLDKAAEIYKEKTIAVILTGGAATGSSNGGDGTKGAFKVKFYGGTVIAEDKETSVVFGMPKSVIEEGYADYVLPAYKIPEKLIELV"

# Target: T2, Biotinylated human HER2 antigen comprising a portion of the HER2 extracellular domain (Acro Biosystems) (human, UniProt P04626 23-652, biotinylated (site not stated))
# T2 construct: extracellular domain; The ELISA text says only 'antigens' were coated; also called HER2 target
# Test: as above
# Procedure: as §1
row,EC50,Binder
1,65 nM,"4-7D (designed binder, CheBc scaffold clone from modified pQE-80L in E. coli, purified on cobalt resin, detected with anti-FLAG) GSHMVSGKIVVIGSSTGGPRSLDMIIPNLPKNFPAPIVVVQHGHDWSGSSGWGTKSLAQRLDSTSELTVKEAEDGEEVKPGFVYIAPGDFHLGLKAQNGKVFFFLDKSGWVSWGWTNNGVRPAVDFTLDKAAEIYKEKTIAVILTGGRYEGVLLGGDGTKGAFKVKFYGGTVIAEDKETSVVFGMPKSVIEEGYADYVLPAYKIPEKLIELV"
2,4 nM,"3-8A (designed binder, CheBc scaffold clone from modified pQE-80L in E. coli, purified on cobalt resin, detected with anti-FLAG) GSHMVSGKIVVIGSSTGGPRSLDMIIPNLPKNFPAPIVVVQHGSWVDGSWTWGTKSLAQRLDSTSELTVKEAEDGEEVKPGFVYIAPGDFHLGLKAQNGKVFFFLDKSGWWNGGYWVTGVRPAVDFTLDKAAEIYKEKTIAVILTGGVNLGLYNGGDGTKGAFKVKFYGGTVIAEDKETSVVFGMPKSVIEEGYADYVLPAYKIPEKLIELV"
3,22 nM,"3-7E (designed binder, CheBc scaffold clone from modified pQE-80L in E. coli, purified on cobalt resin, detected with anti-FLAG) GSHMVSGKIVVIGSSTGGPRSLDMIIPNLPKNFPAPIVVVQHGYYWGSWGYEGTKSLAQRLDSTSELTVKEAEDGEEVKPGFVYIAPGDFHLGLKAQNGKVFFFLDKSGRVVDGWDYDGVRPAVDFTLDKAAEIYKEKTIAVILTGGWDTGSELGGDGTKGAFKVKFYGGTVIAEDKETSVVFGMPKSVIEEGYADYVLPAYKIPEKLIELV"
